Data as given in article PMC6739308 (Scientific Reports, 2019).

Biological target: T1, GST-p53 fusion protein (UniProt P04637 1-393)
T1 construct: p53 fused to GST
Assay: pull-down; 10 μl GST beads bound with 2 μg of GST or GST-p53, purified Flag-tagged SMG7 proteins in solution; binding buffer BC100 with 1 μg/μl BSA, overnight at 4 °C, five washes, western blot
Conditions: both partners purified

T1 sequence (P04637 whole entry, the tested form may be a part): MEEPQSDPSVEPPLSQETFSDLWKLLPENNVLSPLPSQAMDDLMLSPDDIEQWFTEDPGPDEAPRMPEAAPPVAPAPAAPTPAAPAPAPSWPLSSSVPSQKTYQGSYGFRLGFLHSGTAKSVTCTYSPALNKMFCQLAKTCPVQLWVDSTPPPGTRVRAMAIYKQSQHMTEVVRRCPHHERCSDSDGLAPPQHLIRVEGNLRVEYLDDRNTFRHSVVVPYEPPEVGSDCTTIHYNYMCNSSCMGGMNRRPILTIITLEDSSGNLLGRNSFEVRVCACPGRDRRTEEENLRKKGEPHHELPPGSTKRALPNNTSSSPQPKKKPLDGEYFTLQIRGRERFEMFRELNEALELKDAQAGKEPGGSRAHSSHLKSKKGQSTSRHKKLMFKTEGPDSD

- binding result: binds
B1: purified FH-SMG7 C-terminal fragment 815–1091aa (domain or fragment, UniProt Q92540-2 815-1091, looked up)
chain: PSEVKVPEFYWDSSYSMADNRSVMAQQANIDRRGKRSPGVFRPEQDPVPRMPFEKSLLEKPSELMSHSSSFLSLTGFSLNQERYPNNSMFNEVYGKNLTSSSKAELSPSMAPQETSLYSLFEGTPWSPSLPASSDHSTPASQSPHSSNPSSLPSSPPTHNHNSVPFSNFGPIGTPDNRDRRTADRWKTDKPAMGGFGIDYLSATSSSESSWHQASTPSGTWTGHGPSMEDSSAVLMESLKSIWSSSMMHPGPSALEQLLMQQKQKQQRGQGTMNPPH
notes: numbers count on a form of 1091 residues; source: purified; not shown: Flag, N-terminal, kept; HA, N-terminal, kept
